This note sets out measurements from publication PMC2724277.

By Kd is commonly meant the free concentration of one partner at which half of the binding sites on the other are occupied at equilibrium, for simple one-to-one binding. The low end stands for tighter binding, the high end for weaker binding.

This data set addresses NusA-SKK (Escherichia coli, UniProt P0AFF6 132-348). Kind of data set: fluorescence anisotropy.

Sequence of NusA-SKK (P0AFF6 132-348): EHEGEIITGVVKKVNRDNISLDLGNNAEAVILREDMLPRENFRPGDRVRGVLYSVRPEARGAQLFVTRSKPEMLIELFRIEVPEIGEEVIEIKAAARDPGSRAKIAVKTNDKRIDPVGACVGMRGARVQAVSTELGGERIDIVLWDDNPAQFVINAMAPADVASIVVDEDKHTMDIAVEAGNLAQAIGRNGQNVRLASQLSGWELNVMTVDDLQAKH

B1: nutR boxA16-spacer (ssRNA)
RNA: CGCUAUUACACAUUCCA
Turning to B1, the equilibrium dissociation constant (Kd) came to 106 ± 4 µM.

B2: nutR boxB (structured_RNA)
RNA: AGCCCUGAAAAAGGGC
Turning to B2, the binding result was “no binding”.

B3: nutR spacer (ssRNA)
RNA: CACAUUCCA
In turn, B3 yielded a Kd of 137 ± 17 µM.

B4: nutL boxA-spacer (mut) (ssRNA)
RNA: CGCUCUUAAAAAGGAA
Consider B4, for which the binding result is “no binding”.

B5: rrn cac-boxA-spacer (ssRNA)
RNA: CACUGCUCUUUAACAAUUUA
B5: the Kd turned out to be 14 ± 0.2 µM.

B6: nutL boxA-spacer (ssRNA)
RNA: CGCUCUUAAAAAUUAA
B6 displayed a Kd of 71 ± 4 µM.

B7: nutR boxA5-spacer (ssRNA)
RNA: CUCUCUUACACAUUCCA
As for B7, the Kd amounted to 124 ± 7 µM.

B8: nutL spacer (ssRNA)
RNA: AAAAUUAA
Turning to B8, the affinity, expressed as Kd, was 24 ± 2.2 µM.

B9: nutR boxA-spacer (ssRNA)
RNA: CGCUCUUACACAUUCCA
For the molecule B9, the dissociation constant (Kd) was 126 ± 4 µM.

B10: rrn spacer (III) (ssRNA)
RNA: ACAAUUUA
The molecule B10 registered an equilibrium dissociation constant (Kd) of 71 ± 3.3 µM.

B11: nutR boxA (same sequence as nutL boxA) (ssRNA)
RNA: CGCUCUUA
Turning to B11, the binding result was “no binding”.
